Measured values reported in patent US20240124615A1 (HEFEI TG IMMUNOPHARMA, published 2024).

T1: Human B7H6 (ACRO biosystems, cat. No. B76-H52H8) (human, UniProt Q68D85 25-262)
T1 construct: Bought antigen; also called B7H6 antigen; human B7H6 protein
T1 sequence (looked up): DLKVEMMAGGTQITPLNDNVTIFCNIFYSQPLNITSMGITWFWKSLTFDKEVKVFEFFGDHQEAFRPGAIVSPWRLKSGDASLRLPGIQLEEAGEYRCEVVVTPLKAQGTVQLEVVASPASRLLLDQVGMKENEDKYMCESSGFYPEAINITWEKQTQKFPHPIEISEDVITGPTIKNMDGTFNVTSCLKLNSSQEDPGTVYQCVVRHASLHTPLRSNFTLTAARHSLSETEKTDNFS


biological target: T1, Human B7H6 (ACRO biosystems, cat. No. …); experiment: ELISA, B7H6 coated, HRP anti-human IgG detection
Experimental: Human B7H6 (ACRO biosystems, cat. No. B76-H52H8) and human CD3 antigen (ACRO biosystems, cat. No. CDD-H52W1) were diluted to 2 μg/mL with coating buffer (35 mM NaHCO₃, 15 mM Na₂CO₃, pH 9.6), respectively. 100 μL of the diluted solution was added to each well of an ELISA plate at 4° C. overnight, and then washes with PBST (0.05% Tween 20-PBS, pH 7.2) 3 times. 300 μL of blocking buffer (1% BSA, 0.05% Tween20-PBS, pH 7.2) was added to the plate and allowed to stand at room temperature for 2 h, followed by washing with PBST three times. The corresponding bispecific antibody was added to each well and incubated at room temperature for 1 h, followed by washing with PBST three times. 100 μL of HRP-rabbit anti human IgG secondary antibody (Boster, cat. No. BA1070) diluted in blocking buffer was added to each well and incubated for 1 h at room temperature, followed by washing with PBST three times. TMB was added into each well. The plate was kept away from light at room temperature for 2-5 min, the reaction was stopped by adding 2 M sulfuric acid in each well, and finally OD450 values were read with microplate reader.

Row | Binder | binding result
1 | CD3xB7H6-2 bispecific antibody (bispecific antibody, human IgG1, L234A L235A, Heterodimer of two scFv-Fc units, knob-into-hole human IgG1 Fc; name formed by analogy with CD3xB7H6-14) chain 1: not shown chain 2: DIVLTQSPDSLAVSLGERATINCKASQSVDYDGDSYMNWYQQKPGQPPKLLIYAASTLHSGVPDRFSGSGSGTDFTLTISSLQAEDVAVYYCQQSKEDPRTFGQGTKLEIKGGGGSGGGGSGGGGSEVQLVQSGAEVKKPGASVKVSCKASGYTFTDYNMDWVRQAPGQGLEWIGDINPNNGGTLYNQKFRGRVTLTVDTSISTAYMELSRLRSDDTAVYYCARSEVFYGNYADYWGQGTTVTVSSEPKSCDKTHTCPPCPAPEAAGGPSVFLFPPKPKDTLMISRTPEVTCVVVDVSHEDPEVKFNWYVDGVEVHNAKTKPREEQYNSTYRVVSVLTVLHQDWLNGKEYKCKVSNKALPAPIEKTISKAKGQPREPQVCTLPPSRDELTKNQVSLSCAVKGFYPSDIAVEWESNGQPENNYKTTPPVLDSDGSFFLVSKLTVDKSRWQQGNVFSCSVMHEALHNHYTQKSLSLSPGK | binds
2 | CD3xB7H6-1 bispecific antibody (bispecific antibody, human IgG1, L234A L235A, Heterodimer of two scFv-Fc monovalent units, knob-into-hole human IgG1 Fc; name formed by analogy with the printed CD3xB7H6-14) chain 1: not shown chain 2: DIVLTQSPDSLAVSLGERATINCKASQSVDYDGDSYMNWYQQKPGQPPKLLIYAASTLHSGVPDRFSGSGSGTDFTLTISSLQAEDVAVYYCQQSKEDPRTFGQGTKLEIKGGGGSGGGGSGGGGSEVQLVQSGAEVKKPGASVKVSCKASGYTFTDYNMDWVRQAPGQGLEWMGDINPNNGGTLYNQKFRGRVTMTVDTSISTAYMELSRLRSDDTAVYYCARSEVFYGNYADYWGQGTTVTVSSEPKSCDKTHTCPPCPAPEAAGGPSVFLFPPKPKDTLMISRTPEVTCVVVDVSHEDPEVKFNWYVDGVEVHNAKTKPREEQYNSTYRVVSVLTVLHQDWLNGKEYKCKVSNKALPAPIEKTISKAKGQPREPQVCTLPPSRDELTKNQVSLSCAVKGFYPSDIAVEWESNGQPENNYKTTPPVLDSDGSFFLVSKLTVDKSRWQQGNVFSCSVMHEALHNHYTQKSLSLSPGK | binds
3 | CD3xB7H6-3 bispecific antibody (bispecific antibody, human IgG1, L234A L235A, Heterodimer of two scFv-Fc units, knob-into-hole human IgG1 Fc; name formed by analogy with CD3xB7H6-14) chain 1: not shown chain 2: DIVLTQSPDSLAVSLGERATINCKASQSVDYDGDSYMNWYQQKPGQPPKLLIYAASTLHSGVPDRFSGSGSGTDFTLTISSLQAEDVAVYYCQQSKEDPRTFGQGTKLEIKGGGGSGGGGSGGGGSEVQLVQSGAEVKKPGASVKVSCKASGYTFTDYNMDWVRQAPGQGLEWIGDINPNNGGTLYNQKFRGRVTLTVDKSISTAYMELSRLRSDDTAVYYCARSEVFYGNYADYWGQGTTVTVSSEPKSCDKTHTCPPCPAPEAAGGPSVFLFPPKPKDTLMISRTPEVTCVVVDVSHEDPEVKFNWYVDGVEVHNAKTKPREEQYNSTYRVVSVLTVLHQDWLNGKEYKCKVSNKALPAPIEKTISKAKGQPREPQVCTLPPSRDELTKNQVSLSCAVKGFYPSDIAVEWESNGQPENNYKTTPPVLDSDGSFFLVSKLTVDKSRWQQGNVFSCSVMHEALHNHYTQKSLSLSPGK | binds
4 | CD3xB7H6-4 bispecific antibody (bispecific antibody, human IgG1, L234A L235A, Heterodimer of two scFv-Fc units, knob-into-hole human IgG1 Fc; name formed by analogy with CD3xB7H6-14) chain 1: not shown chain 2: DIVLTQSPDSLAVSLGERATINCKASQSVDYDGDSYMNWYQQKPGQPPKLLIYAASTLHSGVPDRFSGSGSGTDFTLTISSLQAEDVAVYYCQQSKEDPRTFGQGTKLEIKGGGGSGGGGSGGGGSEVQLVQSGAEVKKPGASVKVSCKASGYTFTDYNMDWVRQAPGKGLEWIGDINPNNGGTLYNQKFRGRVTLTVDKSISTAYMELSRLRSDDTAVYYCARSEVFYGNYADYWGQGTTVTVSSEPKSCDKTHTCPPCPAPEAAGGPSVFLFPPKPKDTLMISRTPEVTCVVVDVSHEDPEVKFNWYVDGVEVHNAKTKPREEQYNSTYRVVSVLTVLHQDWLNGKEYKCKVSNKALPAPIEKTISKAKGQPREPQVCTLPPSRDELTKNQVSLSCAVKGFYPSDIAVEWESNGQPENNYKTTPPVLDSDGSFFLVSKLTVDKSRWQQGNVFSCSVMHEALHNHYTQKSLSLSPGK | binds
5 | CD3xB7H6-5 bispecific antibody (bispecific antibody, human IgG1, L234A L235A, Heterodimer of two scFv-Fc units, knob-into-hole human IgG1 Fc; name formed by analogy with CD3xB7H6-14) chain 1: not shown chain 2: DIVLTQSPDSLAVSLGERATINCKASQSVDYDGDSYMNWYQQKPGQPPKLLIYAASTLHSGIPDRFSGSGSGTDFTLTISSLQAEDVAVYYCQQSKEDPRTFGQGTKLEIKGGGGSGGGGSGGGGSEVQLVQSGAEVKKPGASVKVSCKASGYTFTDYNMDWVRQAPGQGLEWMGDINPNNGGTLYNQKFRGRVTMTVDTSISTAYMELSRLRSDDTAVYYCARSEVFYGNYADYWGQGTTVTVSSEPKSCDKTHTCPPCPAPEAAGGPSVFLFPPKPKDTLMISRTPEVTCVVVDVSHEDPEVKFNWYVDGVEVHNAKTKPREEQYNSTYRVVSVLTVLHQDWLNGKEYKCKVSNKALPAPIEKTISKAKGQPREPQVCTLPPSRDELTKNQVSLSCAVKGFYPSDIAVEWESNGQPENNYKTTPPVLDSDGSFFLVSKLTVDKSRWQQGNVFSCSVMHEALHNHYTQKSLSLSPGK | binds
6 | CD3xB7H6-6 bispecific antibody (bispecific antibody, human IgG1, L234A L235A, Heterodimer of two scFv-Fc units, knob-into-hole human IgG1 Fc; name formed by analogy with CD3xB7H6-14) chain 1: not shown chain 2: DIVLTQSPDSLAVSLGERATINCKASQSVDYDGDSYMNWYQQKPGQPPKLLIYAASTLHSGIPDRFSGSGSGTDFTLTISSLQAEDVAVYYCQQSKEDPRTFGQGTKLEIKGGGGSGGGGSGGGGSEVQLVQSGAEVKKPGASVKVSCKASGYTFTDYNMDWVRQAPGQGLEWIGDINPNNGGTLYNQKFRGRVTLTVDTSISTAYMELSRLRSDDTAVYYCARSEVFYGNYADYWGQGTTVTVSSEPKSCDKTHTCPPCPAPEAAGGPSVFLFPPKPKDTLMISRTPEVTCVVVDVSHEDPEVKFNWYVDGVEVHNAKTKPREEQYNSTYRVVSVLTVLHQDWLNGKEYKCKVSNKALPAPIEKTISKAKGQPREPQVCTLPPSRDELTKNQVSLSCAVKGFYPSDIAVEWESNGQPENNYKTTPPVLDSDGSFFLVSKLTVDKSRWQQGNVFSCSVMHEALHNHYTQKSLSLSPGK | binds
7 | CD3xB7H6-7 bispecific antibody (bispecific antibody, human IgG1, L234A L235A, Heterodimer of two scFv-Fc units, knob-into-hole human IgG1 Fc; name formed by analogy with CD3xB7H6-14) chain 1: not shown chain 2: DIVLTQSPDSLAVSLGERATINCKASQSVDYDGDSYMNWYQQKPGQPPKLLIYAASTLHSGIPDRFSGSGSGTDFTLTISSLQAEDVAVYYCQQSKEDPRTFGQGTKLEIKGGGGSGGGGSGGGGSEVQLVQSGAEVKKPGASVKVSCKASGYTFTDYNMDWVRQAPGQGLEWIGDINPNNGGTLYNQKFRGRVTLTVDKSISTAYMELSRLRSDDTAVYYCARSEVFYGNYADYWGQGTTVTVSSEPKSCDKTHTCPPCPAPEAAGGPSVFLFPPKPKDTLMISRTPEVTCVVVDVSHEDPEVKFNWYVDGVEVHNAKTKPREEQYNSTYRVVSVLTVLHQDWLNGKEYKCKVSNKALPAPIEKTISKAKGQPREPQVCTLPPSRDELTKNQVSLSCAVKGFYPSDIAVEWESNGQPENNYKTTPPVLDSDGSFFLVSKLTVDKSRWQQGNVFSCSVMHEALHNHYTQKSLSLSPGK | binds
8 | CD3xB7H6-8 bispecific antibody (bispecific antibody, human IgG1, L234A L235A, Heterodimer of two scFv-Fc units, knob-into-hole human IgG1 Fc; name formed by analogy with CD3xB7H6-14) chain 1: not shown chain 2: DIVLTQSPDSLAVSLGERATINCKASQSVDYDGDSYMNWYQQKPGQPPKLLIYAASTLHSGIPDRFSGSGSGTDFTLTISSLQAEDVAVYYCQQSKEDPRTFGQGTKLEIKGGGGSGGGGSGGGGSEVQLVQSGAEVKKPGASVKVSCKASGYTFTDYNMDWVRQAPGKGLEWIGDINPNNGGTLYNQKFRGRVTLTVDKSISTAYMELSRLRSDDTAVYYCARSEVFYGNYADYWGQGTTVTVSSEPKSCDKTHTCPPCPAPEAAGGPSVFLFPPKPKDTLMISRTPEVTCVVVDVSHEDPEVKFNWYVDGVEVHNAKTKPREEQYNSTYRVVSVLTVLHQDWLNGKEYKCKVSNKALPAPIEKTISKAKGQPREPQVCTLPPSRDELTKNQVSLSCAVKGFYPSDIAVEWESNGQPENNYKTTPPVLDSDGSFFLVSKLTVDKSRWQQGNVFSCSVMHEALHNHYTQKSLSLSPGK | binds
9 | CD3xB7H6-10 bispecific antibody (bispecific antibody, human IgG1, L234A L235A, Heterodimer of two scFv-Fc units, knob-into-hole human IgG1 Fc; name formed by analogy with CD3xB7H6-14) chain 1: not shown chain 2: DIVLTQTPLSLSVTPGQPASISCKASQSVDYDGDSYMNWYLQKPGQPPQLLIYAASTLHSGVPDRFSGSGSGTDFTLKISRVEAEDVGVYYCQQSKEDPRTFGQGTKLEIKGGGGSGGGGSGGGGSEVQLVQSGAEVKKPGASVKVSCKASGYTFTDYNMDWVRQAPGQGLEWIGDINPNNGGTLYNQKFRGRVTLTVDTSISTAYMELSRLRSDDTAVYYCARSEVFYGNYADYWGQGTTVTVSSEPKSCDKTHTCPPCPAPEAAGGPSVFLFPPKPKDTLMISRTPEVTCVVVDVSHEDPEVKFNWYVDGVEVHNAKTKPREEQYNSTYRVVSVLTVLHQDWLNGKEYKCKVSNKALPAPIEKTISKAKGQPREPQVCTLPPSRDELTKNQVSLSCAVKGFYPSDIAVEWESNGQPENNYKTTPPVLDSDGSFFLVSKLTVDKSRWQQGNVFSCSVMHEALHNHYTQKSLSLSPGK | binds
10 | CD3xB7H6-9 bispecific antibody (bispecific antibody, human IgG1, L234A L235A, Heterodimer of two scFv-Fc units, knob-into-hole human IgG1 Fc; name formed by analogy with CD3xB7H6-14) chain 1: not shown chain 2: DIVLTQTPLSLSVTPGQPASISCKASQSVDYDGDSYMNWYLQKPGQPPQLLIYAASTLHSGVPDRFSGSGSGTDFTLKISRVEAEDVGVYYCQQSKEDPRTFGQGTKLEIKGGGGSGGGGSGGGGSEVQLVQSGAEVKKPGASVKVSCKASGYTFTDYNMDWVRQAPGQGLEWMGDINPNNGGTLYNQKFRGRVTMTVDTSISTAYMELSRLRSDDTAVYYCARSEVFYGNYADYWGQGTTVTVSSEPKSCDKTHTCPPCPAPEAAGGPSVFLFPPKPKDTLMISRTPEVTCVVVDVSHEDPEVKFNWYVDGVEVHNAKTKPREEQYNSTYRVVSVLTVLHQDWLNGKEYKCKVSNKALPAPIEKTISKAKGQPREPQVCTLPPSRDELTKNQVSLSCAVKGFYPSDIAVEWESNGQPENNYKTTPPVLDSDGSFFLVSKLTVDKSRWQQGNVFSCSVMHEALHNHYTQKSLSLSPGK | binds
